According to the nanobody polyreactivity screen of Harvey et al. (2022):

experiment: yeast display, Sf9 membrane polyspecificity reagent, FACS + sequencing; frameworks hold sequencing errors
Method in brief: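 Sorting gates, low and high (top ~1%), were placed on anti-HA fluorescence to track expression and on streptavidin fluorescence to track reagent binding. A clone's polyreactivity label is taken from the gate it came out of. The reagent was 10% biotinylated, detergent-solubilized Sf9 membrane, applied for 1 hour at 4 °C to galactose-induced yeast display cells.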

Row | Sequence | polyreactivity (PSR sort gate)
1 | QVQLVESGGGLVQAGGSLRLSCAASGFTLPLYAMGWYRQAPGKERELVATISSGGTTYYADSVKGRFTISRDNAKNTVYLQMNSLKPEDTAVYYCNTLRQLGRPFYYWGQGTQVTVSS | high polyreactivity
2 | QVQLVESGGGLVQAGGSLRLSCAASGFTLQPYAMGWYRQAPGKERELVAAISSRGGRTYYADSVKGRFTISRDNAKNTVYLQMNSLKPEDTAVYYCAATGGYVYPRSRLYYYWGQGNQVTVSS | high polyreactivity
3 | QVQLVESGGGLVQAGGSLRLSCAASGFTLQQYTMGWYIQAPGKERELVAAISTSGVRTYYADSVKGRFTISRDNAKNTVYLQMNSLKPEDTAVYYCNAAWVYGIGWYSGYDYWGQGTQVTVSS | high polyreactivity
4 | QVQLVESGGGLVQAGGSLRLSCAASGFTLRGNAMGWYRQAPGKESELVAAISTGGSTYNADSVKGRFTISRDNAKITVYLQMNSLNPEDTAVYYCARRGWFHYRYYYWGQGSQVTVSS | high polyreactivity
5 | QVQLVESGGGLVQAGGSLRLSCAASGFTLRRNAMGWYRQAPGKERELVAAISSSGSTYYADSVKGRFTISRDNAKNTVYLQMNSLKPEDTAVYYCAASATYKVRGGYWGQGTQVTVSS | high polyreactivity
6 | QVQLVESGGGLVQAGGSLRLSCAASGFTLRSNAMGWYRQAPGKERELVASITDGTSTNYADSVKGRFTISRDNAKNTVYLQMNSLKPEDTAVYYCATRHPARRDYWGQGTQVTVSS | low polyreactivity
7 | QVQLVESGGGLVQAGGSLRLSCAASGFTLRVNAMGWYRQAPGKERELVAAISDSGTNTYYADSVKGRFTISRDNAKNTVYLQMNSLKPEDTAVYYCATAVYLVIFEYDYWGQGTQVTVSS | low polyreactivity
8 | QVQLVESGGGLVQAGGSLRLSCAASGFTLRVNDMGWYRQAPGKERELVAGITVSGGSTYYADSVKGRFTISRDNAKNTVYLQMNSLKPEDTAVYYCNADNYENATGMDYWGQGTQVTVSS | low polyreactivity
9 | QVQLVESGGGLVQAGGSLRLSCAASGFTLSGNAMGWYRQAPGKERELVAAINGSGGSTYYADSVKGRFTISRDNAKNTVYLQMNSLKPEDTAVYYCAAAGSYGQAYSIFTLDSWGPGTQVTVSS | low polyreactivity
10 | QVQLVESGGGLVQAGGSLRLSCAASGFTLSSYVMGWYRQAPGKERELVAAITSSGGSTYYADSVKGRFTISRDNAKNTVYLQMNSLKPEDTAVYYCNAVWWYKLYFDDDYWGQGTQVNVSS | high polyreactivity
11 | QVQLVESGGGLVQAGGSLRLSCAASGFTLTGNAMGWYRQAPGKERELVAAISRNGGSTFYADSVKGRFTISRDNAKNTVYLQMNSLKPEDTAVYYCNASRFRHSAYKYDSWGQGTQVTVSS | high polyreactivity
12 | QVQLVESGGGLVQAGGSLRLSCAASGFTLTLRYAMGLYRQAPGKERELVAAISSGGRTKYADSVKGRFTISRDNAKNTVYLQMNSRKPEDTAVYYCNAVTQREYEEGDYWGQGTQVTVSS | high polyreactivity
13 | QVQLVESGGGLVQAGGSLRLSCAASGFTLTRNAMGWYRQAPGKERELVAAISWSGGTTYYADSVKGRFTISRDNAKNTVYLQMNSLKPEDTADYYCNTASWRAQYYYWGQGTQVTVSS | high polyreactivity
14 | QVQLVESGGGLVQAGGSLRLSCAASGFTLVKYVMGWYRPAPGKERELVAAINRSGTSTYYADSVKGRFTISRDNAKNTVYLQMNSLKPEDTAVYYCAAERSRNFDWGQGTQVTVSS | high polyreactivity
15 | QVQLVESGGGLVQAGGSLRLSCAASGFTLYVNAKGWYRQAPGKERELVAAISWSGGSTYYADSVKGRFTISRDNAKNTVYLQMNSLKPEDTAVYYCNAKYHRRLQWGTRYYYWGQGTQVTVSS | high polyreactivity
16 | QVQLVESGGGLVQAGGSLRLSCAASGFTSGQYAMGWYRQAPGKERELVAAISWSGGSTYYADSVKGRFTISRDNAKNTVYLQMNSLKPEDTAVYYCAAGKTPQKYGGFNYWGQGTQVTVSS | high polyreactivity
17 | QVQLVESGGGLVQAGGSLRLSCAASGFTSNYYAMGGYRQAAGKERELVAAITTGGSTHYADSVQGRFTISRDNAKNTVYVQMNSLKPEDTAVYYCAADLKDTRLFPWFCEYDYWGQGTQVTVSS | low polyreactivity
18 | QVQLVESGGGLVQAGGSLRLSCAASGFTSRYYAMGWYRQAPGKERELVAAISSSGGRTYYADSVKGRFTISRDNAKNTVYLQMNSLKPEDTAVYYCNTGIHARYGGLYGYWGQGTQVTVSS | high polyreactivity
19 | QVQLVESGGGLVQAGGSLRLSCAASGFTTAYAMGWYRQAPGKERELVAAISSGGSTYYADSVKGRFTISRDNAKNTVYLQMNSLKPEDTAVYYCATGPYYGYDEFDYWGQGTQVTVSS | low polyreactivity
20 | QVQLVESGGGLVQAGGSLRLSCAASGFTTRSYAMGWYRQAPGKERELVAAISFSGGRTYYADSVKGRFTISRDNAKNTVYLQMNSLKPEDTAVYYCNARAYTRYSLLDYWGQGTQVTVSS | high polyreactivity
21 | QVQLVESGGGLVQAGGSLRLSCAASGFTVGYAMGWYRQAPGKERELVAAITRGGGTRTSYADSVKGRFTISRDNAKNTVYLQMNSLKPEDTAVYYCAARRWWSPRTQYDYWGQGTQVTVSS | high polyreactivity
22 | QVQLVESGGGLVQAGGSLRLSCAASGFTYFYYAMGSYRQAPGKERELVASISWSGGSTYYADSVKGRFTISRDNAKNTVYLQMNSLKPEDTAVYYCAADVPFGGDYWGQGTQVTVSS | low polyreactivity

Row | Sequence | polyreactivity (PSR sort gate)
23 | QVQLVESGGGLVQAGGSLRLSCAASGFTYYWNAMGWYRQAPGKERELVAAINWRGTSTYYADSVKGRFTISRDNAKNTVYLQMNSLKPEDTAVYYCNTYGYVEYDWGQGTQVTVSS | high polyreactivity
24 | QVQLVESGGGLVQAGGSLRLSCAASGFYLNAMGWYRQAPGKERELVATITSSATNTYYADSVKGRFTISRDNAKNTVYLQMNSLKPEDTAVYYCNARYTSHTHADGVYLYDYWGQGTQVTVSS | low polyreactivity
25 | QVQLVESGGGLVQAGGSLRLSCAASGGIFAANAMGWYRQAPGTERELVAAITSVGSTYADSVKGRFTISRDNAKNTVYLQMNSLKPEDTAVSYCAADTESVIVWYEDDYWGQGTQVTVSS | low polyreactivity
26 | QVQLVESGGGLVQAGGSLRLSCAASGGIFAIYAMGWYRQAPGKEREFVATISWRGGSTYYADSVKGRFTISRDNAKNTVYLQMNSLKPEDTAVYYCAAPHFSYSGGTHDYWGQGTQVTVSS | high polyreactivity
27 | QVQLVESGGGLVQAGGSLRLSCAASGGIFAPYAMGWYRQAPGKERELVADITSDGGSTYYADSVKGRFTISRDNAKNTVYLQMNSLKPEDTAVYYCAAEQRYWWWGHPGDYWGQGTQVTVSS | low polyreactivity
28 | QVQLVESGGGLVQAGGSLRLSCAASGGIFASNAMGWYRQAPGKERELVATITRGGSTNYADSVKGRFTISRDNAKNTVYLQLNSLKPEDTAVYYCAARFYSRAFWPAYYYWGQGTQVTVSS | high polyreactivity
29 | QVQLVESGGGLVQAGGSLRLSCAASGGIFAYNAMGWYRQAPGKERELVATISSGVSTNYADSVKGRFTISRDNAKNTVYLPMNSLKPEDTAVYDCAAAIFITGYGSYGYWGQGTQVTVSS | low polyreactivity
30 | QVQLVESGGGLVQAGGSLRLSCAASGGIFAYYGMGWYRQAPGKERELVAAIWIGGNTYYADSVKGRFTISRDNAKNTVYLQMNSLKPEDTAVYDCAAAGSAYYSTRKWDSYYYWGQGTQVTVSS | low polyreactivity
31 | QVQLVESGGGLVQAGGSLRLSCAASGGIFAYYTMGLYTQDHGKERELVAAISTSSVNTYYADSVKGRFTISRDNAKHTVYLQMNSLKQEVNAVYYCAAEVYYGYDYCGQGTQVTVSS | low polyreactivity
32 | QVQLVESGGGLVQAGGSLRLSCAASGGIFDNYAMGWYRQAPGKEREFVAVISSGGTTNYADSVKGRFTISRVNAKNTVYLQMNSLKPEDTAVYYCAADYDYRQGYDSVHLDYWGQGTQVTVSS | low polyreactivity
33 | QVQLVESGGGLVQAGGSLRLSCAASGGIFDRYAMGWYRPAPGKERELVAGITWSGGRTYYADSVKGRFTISRDNAKNTVYLQMNSLKPEDTAVYYCAASLYTWTYQPVYYRDGYWGQGTQVTVSS | low polyreactivity
34 | QVQLVESGGGLVQAGGSLRLSCAASGGIFDRYAMGWYRQAPGKERELVAAITSGGSTNYADSVKGRFTISRDNAKNTVYLQMNSLKPEDNAVYYCAAVESSYEAWYTYYYWGQGTQVTVSS | low polyreactivity
35 | QVQLVESGGGLVQAGGSLRLSCAASGGIFESYAMGWYRQAPGKERELVASISSGGSTYYADSVKGRFTISRDNAKNTVYLQMNSLKPEDTAVYYCEYYYWGQGTQVTVSS | low polyreactivity
36 | QVQLVESGGGLVQAGGSLRLSCAASGGIFFYNAMGWYRQAPGKERELVAAISTGGGRTYYADSVKGRFTISRDNAKNTVYLQMNSLKPEDTAVYYCAKDKQDYEYWGQGTQVTVSS | low polyreactivity
37 | QVQLVESGGGLVQAGGSLRLSCAASGGIFGFNAMGWYRQAPGKERELVADISDGVRTNYADSVKGRFTISRDNAKNTVFLQMNSLKPEDTAVYYCATDGLFYVDGSWTLGYWGQGTQVTVSS | low polyreactivity
38 | QVQLVESGGGLVQAGGSLRLSCAASGGIFGHNAMGWYRQAPGKERELVAAISYTGGSTYYADSVKGRFTISRDNAKNTVYLQMNSLKPEDTAVYYCNAVQRRFRYPFDYWGQGTQVTVSS | low polyreactivity
39 | QVQLVESGGGLVQAGGSLRLSCAASGGIFGSYAMGWYRQAPGKERELVAAISWTGGSTYYADSVKGRFTISRDTAKNTVYLQMNSLKREDTAVYYCNADTYRRAQLRFNSWGQGTQVTVSS | low polyreactivity
40 | QVQLVESGGGLVQAGGSLRLSCAASGGIFGTNDMGWYRQAPGKERELVAAITSDSGSTYYADSVKGRFTISRDNAKNTVYLQMNSLKPEDTAVYYCAAEDGPWFYRYGYWGQGTQVTVSS | low polyreactivity
41 | QVQLVESGGGLVQAGGSLRLSCAASGGIFGYYAMGWYRQAPGKERELVAAITLSGGRTYYADSVKGRFTISRDNAKNTVYLQMNSLKPEDTAVYYCAAKGTRRGKERNYWGQGTQVTVSS | high polyreactivity
42 | QVQLVESGGGLVQAGGSLRLSCAASGGIFGYYVMGWYRQAPGKERELVAAITSGGGTNYADSVKGRFTISRDNAKNTVYLQMNSLKPEDTAVYYCAAVYVRHRFGRFGYWGQGTQVTVSS | low polyreactivity
43 | QVQLVESGGGLVQAGGSLRLSCAASGGIFIGYAMGWYRQAPGKERELVAAISYSGGSTYYADSVKGRFTISRDNAKNTVYFQMNSLKPEDTALYYCAAQVERKYRWFNSWGQGTQVTVSS | high polyreactivity
